According to US20160053277A1, “Compositions Having Dicamba Decarboxylase Activity and Methods of Use” (PIONEER HI-BRED INTERNATIONAL, INC., priority 2013, published 2016):

B1: 104 (protein)
chain: MANILQEPIDFLKKEELKNIDLSQMSKKERYKIWKRIPKCELHCHLDLCFSADFFVSCIRKYNLQPNLSDEEVLDYYLFAKGGKSLGEFVEKAIKVADIFHDYEVIEDLAKHAVFNKYKEGVVLMEFRYSPTFVAFKYNLDIELIHQAIVKGIKEVVELLDHKIHVALMCIGDTGHEAANIKASADFCLKHKADFVGFDHGGHEVDLKEYKEIFDYVRESGVPLSVHAGEDVTLPNLNTLYSAIQVLKVERIGHGIRVAESQELIDMVKEKNILLEVCPISNVLLKNAKSMDTHPIRQLYDAGVKVSVNSDDPGMFLTNINDDYEELYTHLNFTLEDFMKMNEWALEKSFMDSNIKDKIKNLYF
modifications: Plasmodium Vivax
B2: 102 (protein, listed as Lactobacillus plantarum)
chain: MATKTFKTLDDFLGTHFIYTYDNGWEYEWYAKNDHTVDYRIHGGMVAGRWVTDQKADIVMLTEGIYKISWTEPTGTDVALDFMPNEKKLHGTIFFPKWVEEHPEITVTYQNEHIDLMEQSREKYATYPKLVVPEFANITYMGDAGQNNEDVISEAPYKEMPNDIRNGKYFDQNYHRLNK
B3: 101 (protein, listed as Aquifex aeolicus)
chain: MAQKIALCITGASGVIYGIKLLQVLEELDFSVDLVISRNAKVVLKEEHSLTFEEVLKGLKNVRIHEENDFTSPLASGSRLVHYRGVYVVPCSTNTLSCIANGINKNLIHRVGEVALKERVPLVLLVREAPYNEIHLENMLKITRMGGVVVPASPAFYHKPQSIDDMINFVVGKLLDVLRIEHNLYKRWRG
B4: 9 (protein, listed as Octadecabacter antarcticus)
chain: MATPKITFEEHFMAPGFEKHSEAFLKLIPRDQAEILTRRLGDFDGERIETMDRGGITRSIISLTGPGTQGEAVEKAVSAAQGANDFLAEKISKKPDRLGGLATLPMHDPDAAARELNRAVNDLGLQGCLVNTHTHGAYYEGTDYDPFWAEVEKLGVPFYLHPSNAYVTPHVLGGMPVLQGATWGWGVETGSHALRILFGGVFDRFPDVKLVLGHMGEALPFLRWRYDSRFGAYPMGVSLDRAPSAYFGSNILITTSGVCSHPSLIGAIGEMGADAVMFSVDYPYEDTDLAVEFIETAPLEDATRVKICHDNAARLFGMPTLAAKEGA
B5: 10 (protein, listed as Starkeya novella)
chain: MARKIALEEHFTTPELAGKYVARPTQSDALFADIERRLADFDELRLEMMDRAEIDLMVLSVTTPGVQGVRDTGEAIRLARGANDFLAREVQKRPSRYAGFAHLAMQDAEAAATELERAVRELGFRGALINGQTNGHYLDEDQYAPFWERVQELDVPVYLHPGNMADSPAMFAHRPELGGPIWAWTAETAAHALRLVFGGTFTRFPGAKVILGHMGETLPFLLWRLDSRREFDLGEKLAPDALPSAIIKRNIAVTTSGVCDPAPLVAALQALSDDNVMFSVDYPYEDPQLASKFIETAPIGEETRAKVCHGNAERLLGL
B6: 105 (protein)
chain: MAIDFHVHLDLYPDPVAVARACEERQLTVLSVTTTPAAWRGTLALAAGRPHVWTALGFHPEVVSERAADLPWFDRYLPETRFVGEVGLDGSPSLRGTWTQQFAVFQHILRRCEDHGGRILSIHSRRAESEVLNCLEANPRSGTPILHWYSGSVTELRRAISLGCWFSVGPTMVRTQKGAALIRSMPRDRVLTETDGPFLELDGQAALPWDVKSVVEGLSKIWQIPASEVERIVKENVSRLLGTVR
modifications: Deinococcus radiodurans
B7: 103 (protein)
chain: MAMEIPTEEIKFLKKEDVQNIDLNGMSKKERYEIWRRIPKVELHCHLDLTFSAEFFLKWARKYNLQPNMSDDEILDHYLFTKEGKSLAEFIRKAISVSDLYRDYDFIEDLAKWAVIEKYKEGVVLMEFRYSPTFVSSSYGLDVELIHKAFIKGIKNATELLNNKIHVALICISDTGHAAASIKHSGDFAIKHKHDFVGFDHGGREIDLKDHKDVYHSVRDHGLHLTVHAGEDATLPNLNTLYTAINILNVERIGHGIRVSESDELIELVKKKDILLEVCPISNLLLNNVKSMDTHPIRKLYDAGVKVSVNSDDPGMFLSNINDNYEKLYIHLNFTLEEFMIMNNWAFEKSFVSDDVKSELKALYF
modifications: Plasmodium yoelii yoelii
B8: 8 (protein, listed as Metarhizium anisopliae)
chain: MARGKINFEEAFELPTLADSSREQAALYIAPKDLDRYIYHIKHPLGERLQLANSHGIGYTIYSLTVPGIQGIPDQSKAEQHATTVNDWIANEIKDHRDRLGAFAALSMHDAAQAAAELERCVRQHGFHGALLNNYQHAGPDGETYLFYDQPAYDVFWQKCVELDVPVYLHPAAPAGNYYKQMYAQRKYLVGPPLSFANDVSLHLLGLVTNGVFDRFPKLKVVVGHLGEHIPFDFWRISHWLEDVERPLAAGRGDVMSKKDLLYYFKNNIWVTTSGHFSTPTVRYVADYLGPERIMFSVDTPYETIENGVGWFDGEEDALTRALGGEDGYKKVARENAKKLFKLTKYHDCDA
B9: 107 (protein, listed as Rhodopseudomonas palustris)
chain: MAIIDIHGHYTTAPKALEDWRNRQIAGIKDPSVMPKVSELKISDDELQASIIENQLKKMQERGSDLTVFSPRASFMAHHIGDFNVSSTWAAICNELCYRVSQLFPDNFIGAAMLPQSPGVDPKTCIPELEKCVKEYGFVAINLNPDPSGGHWTSPPLTDRIWYPIYEKMVELEIPAMIHVSTSCNTCFHTTGAHYLNADTTAFMQCVAGDLFKDFPELKFVIPHGGGAVPYHWGRFRGLAQEMKKPLLEDHVLNNIFFDTCVYHQPGIDLLNTVIPVDNVLFASEMIGAVRGIDPRTGFYYDDTKRYIEASTILTPEEKQQIYEGNARRVYPRLDAALKAKGK
B10: 13 (protein, listed as Metarhizium acridum)
chain: MAHGKVALEEAFALPRLHEKTRWWASLFAVNPDKHAAEMTDITDIRINYMDKHGVGYTILSYTAPGVQDISDPKEAQALAVEINDYVAGAIKNHPDRFGAFATLSMRNPQEAATELKRCVTQYGFKGALVNDTQRAGEDDMIFYDGPEWDVFWSTVEELDVPFYLHPRNPTGSLYEKLWAKRKWLVGPPLSFAQGVSLHVLGMVTNGVFDRHPKLQVVLGHLGEHIPFDMWRINHWFEDVKKPLGLDCKKTIREYFQQNIWITTSGHFSTTTLQFCMAEVGADRILFSIDYPFECFADACDWYDGVPINLVDKAKIGRDNARRLFKLPEFKDSEKHVDA
B11: 14 (protein, listed as Talaromyces marneffei)
chain: MARGKVSFEEAYEIPALADKSREQAALYIAPKDLDRYLSEIKSPTGGRLDISNKNGIGYTIYSLTVPGVQGIADKAKAEKHATDVNNWIYNEIKDHRDRMGAFAALSMHDPVQAGQELERCVKKLGFHGALLNNWQHAGTDGETYIFYDHPSYDVFWQKCVELDVPVYLHPSAPSGKVFDTFFKDRRYLIGPPISFAQDVALHTMGLITNGVFDRNPKLKLILGHLGERIPQDLWRTNHWLEDVERPLADSRGDTMSRKPLLYYFKNNIYVTTSGHFSTETVKFVCDYFGADRILFSVDSPYEKIEEGAGWYDKDKDNLTKALGGPQQYLDVGRENAKKLFKLGKYHDCDA
B12: 11 (protein)
chain: MALGKIALEEAFALPRFEEKTRWWASLFSVDPETHVKEITDINKLRIEHADKYGVGYQILSYTAPGVQDIWDPVEAQALAVEINDYIAEQIRDKPDRFGAFATLSMHNPQEAASELRRCVQTYGFKGALVNDTQRAGPDGDDMIFYDNASWDIFWQTCTELDVPLYLHPRNPTGTIYEKLWADRKWLVGPPLSFAQGVSLHVLGMVTNGVFDRHPNLQLIMGHLGEHVPFDMWRINHWFEDRKKLLGLAETCKKTIREYFAQNIWITTSGHFSTTTLNFCMAEVGVDRILFSIDYPFETFEDACVWFDGAELNLSDKAKIGRDNAARLFKLGAFRDYDAKVKA
modifications: Aspergillus niger
B13: 12 (protein, listed as Zymoseptoria tritici)
chain: MALGKVAFEEAFALPRFKERTTWWAGLFAVDPEKHTREINDINKLRIEKMDQFGVGYTLLSYTAPGVQDVWQQEEADALAREVNDHVAAEIKGHEDRLGALATLSMHDPQTASAELRRCIKDYGFKGALVNDTQRNDESGTGMIFYDGPEWDVFWSTVQELDVPFYLHPRNPTGVFMEKLWAPRKWLVGPPLSFAQGVSLHLLGMVTNGTFDRFPNLQVIIGHLGEHLPFDLWRINHWFEDIKKPLGLDCKKTIREYFNENIWITTSGHFSTPTLEYCIKEIGAERILFSIDYPFEKFEDACDWYDGVELDGPDTVKKIGRENAKKLFKLGAFKDDSA
B14: 106 (protein, listed as Pyrococcus horikoshii)
chain: MAGMKFIKNLHVSKLVIDSMKALINGTIYTSFNPLKKVSGLVISHGKVIYAGDSEVAKKIVELSGGEIVDLKGKYVMPAFFDSHLHLDELGMSLEMVDLRGAKSIEELIQRLKRGKGRIIFGFGWDQDELGEWPTRKELNAIDKPVFIYRKCFHVAVANDKMLELLNLTPSKDFDEDTGIIKEKSLEEARKVINERVLTVEDYVYYIKRAQEHLLDLGVKSVSFMSVNEKALRALFYLEREGKLSINVFAYVTPEVLDKLESIGLGRFQGNRLTIAGVKLFTDGSLGARTALLSKPYSDDPSTSGQLVMEREELIRITEKARSLGLDVAIHAIGDKALDVALDVFETTGFPGRIEHASLVRDDQLERVKNLKVRLSVQPHFIISDWWIVERVGEERVKWVYRFKDLMKVAELGFSTDSPIEPADPWLTVDAAVNRGKGKVKLYELTKDQALDIKDALHSYTYGSARVSLASDIGKLEPGFKAEYIILDRDPLVVK

Columns and labels:
[1] = Saturation mutagenesis of SEQ ID NO:109: dicamba decarboxylation activity of point mutants (carbon dioxide released); conditions: decarboxylation activity (carbon dioxide released) of point mutant compared with unmutated backbone protein; backbone SEQ ID NO: 109
[2] = 14C assay with IPTG-induced recombinant E. coli cells: 14CO2 captured from [14C]-carboxyl-labeled dicamba; conditions: for Enzymatic Detection level: dicamba decarboxylation activity of the protein of the given SEQ ID NO, High / Low / No; for Dicamba Decarboxylase Activity: induced recombinant E. coli cells, [14C]-carboxyl-labeled dicamba, 14CO2 capture

Molecule | Fold Activity [1] | Enzymatic Detection level [2] | Dicamba Decarboxylase Activity [2]
B1 | 2.1 | No | No
B2 | 2.6 | No | No
B3 | 1.8 | No | No
B4 | 1.2 | No | No
B5 | 1.2 | Low | Low
B6 | 0.9 | No | No
B7 | 1.7 | No | No
B8 | 1.3 | Low | Low
B9 | 1.7 | No | No
B10 | 1 | No | No
B11 | 1 | Low | Low
B12 | 1 | Low | Low
B13 | 0.9 | No | No
B14 | 0.8 | No | No
